Target: interleukin 3 receptor α (IL-3Rα) chain on human pDCs and basophils (human) (UniProt P26951)
Assay: cell-based or functional assay

Chain of UniProt P26951 (P26951 20-378): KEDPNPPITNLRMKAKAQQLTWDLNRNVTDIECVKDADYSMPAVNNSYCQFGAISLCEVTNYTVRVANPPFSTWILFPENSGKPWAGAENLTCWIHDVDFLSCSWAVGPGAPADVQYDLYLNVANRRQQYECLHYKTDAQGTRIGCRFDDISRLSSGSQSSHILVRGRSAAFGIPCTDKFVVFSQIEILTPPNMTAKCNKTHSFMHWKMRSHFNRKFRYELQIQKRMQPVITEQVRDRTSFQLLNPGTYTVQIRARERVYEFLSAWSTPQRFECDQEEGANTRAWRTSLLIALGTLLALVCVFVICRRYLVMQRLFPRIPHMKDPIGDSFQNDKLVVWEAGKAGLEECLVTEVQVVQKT

- pDCs (% of total cells remaining in culture), 4h, 10 µg/ml antibody on human PBMC (% of total cells remaining in culture): 0.1
- pDCs (% of total cells remaining in culture), 24h, 10 µg/ml antibody on human PBMC (% of total cells remaining in culture): 0.02
- pDCs (% of total cells remaining in culture), 48h, 10 µg/ml antibody on human PBMC (% of total cells remaining in culture): 0.005
Substance: ch7G3 (chimeric version of 7G3 with a human IgG1 constant domain) (antibody)

— patent EP2536430B1
